The values that follow come from article PMC4040282 (Physical chemistry chemical physics : PCCP, 2014).

The kon is the rate constant with which the complex forms. The term Kd denotes the constant that tells how readily two partners part at equilibrium. The low end stands for higher affinity, the high end for lower affinity.

Assay [1] concerns the target T1, N-terminal hexahistidine-NFκB (His6-p50(39-350)/RelA(19-321)) heterodimer (UniProt P25799 39-350; Q04207 19-321). Kind of assay: stopped-flow fluorescence.
Assay [2] addresses (p50(248-350)/RelA(190-321)) heterodimer, biotinylated (murine, UniProt P25799 248-350; Q04207 190-321, biotin PEO maleimide (on the added N-terminal cysteine)). Kind of assay: SPR. Background: In SPR one partner is held on a chip, and binding of the other changes the refractive index at the surface.
In assay [3] the target is T1, N-terminal hexahistidine-NFκB …. The experiment in a line: stopped-flow fluorescence. This is another data set of the same source.

Substitutions are numbered along the chain they refer to. In names and notes the source's numbering stands. Where two headings read alike, the source gives them in different places.

B1: Human wild-type IκBα(67-287) (domain or fragment, UniProt P25963 67-287, looked up)
chain: KQQLTEDGDSFLHLAIIHEEKALTMEVIRQVKGDLAFLNFQNNLQQTPLHLAVITNQPEIAEALLGAGCDPELRDFRGNTPLHLACEQGCLASVGVLTQSCTTPHLHSILKATNYNGHTCLHLASIHGYLGIVELLVSLGADVNAQEPCNGRTALHLAVDLQNPDLVSLLLKCGADVNRVTYQGYSPYQLTWGRPSTRIQQQLGQLTLENLQMLPESEDEE
B1 registered a kon in assay [1] of 1.4e+07 M⁻¹ s⁻¹. This molecule also came in with a Kd in assay [2] of 0.172 ± 0.004 nM.

B2: IκBα(67-287) E282W (domain or fragment, human, UniProt P25963 67-287, looked up)
chain: B1 chain with E216W
B2: the kon in assay [1] stood at 1.1e+07 M⁻¹ s⁻¹; in assay [3] it was 3.8e+06 M⁻¹ s⁻¹. In assay [2], the Kd came out at 0.155 ± 0.014 nM.

B3: IκBα(67-287) P261F (domain or fragment, human, UniProt P25963 67-287, looked up)
chain: B1 chain with P195F
On to B3, for which the kon in assay [1] stood at 1.4e+07 M⁻¹ s⁻¹. The Kd in assay [2] turned out to be 0.462 ± 0.008 nM.
